Holding throughout (test): two-hybrid library CCmax;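 also: natural log of median RNA to DNA barcode read ratio; higher means stronger binding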
One test deals with T1, APC1115-AA.
T1 chain: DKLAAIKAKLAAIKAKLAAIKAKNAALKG

For the next test, the target named is T2, APC1242-AA.
T2 chain: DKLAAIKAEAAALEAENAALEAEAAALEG
The settings on record: mean of both orientations.

Another test deals with T3, APC1916-AA.
T3 chain: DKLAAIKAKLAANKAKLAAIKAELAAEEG
The settings on record: mean of both orientations.

The next test has as its target T4, APC1987-AA.
T4 chain: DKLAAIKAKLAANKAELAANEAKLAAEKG
To be noted: mean of both orientations.

A further test deals with T5, APC222-AA.
T5 chain: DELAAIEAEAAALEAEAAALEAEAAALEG
The settings on record: mean of both orientations.

A further test deals with T6, APC2257-AA.
T6 chain: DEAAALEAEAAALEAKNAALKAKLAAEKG
The settings on record: mean of both orientations.

The next test has as its target T7, APC2375-AA.
T7 chain: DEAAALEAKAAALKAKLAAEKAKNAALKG
The settings on record: mean of both orientations.

In the next test the target is T8, APC2474-AA.
T8 chain: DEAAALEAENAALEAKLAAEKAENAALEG
The settings on record: mean of both orientations.

The next test deals with T9, APC2543-AA.
T9 chain: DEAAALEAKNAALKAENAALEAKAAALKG
The settings on record: mean of both orientations.

The next test concerns the target T10, APC2556-AA.
T10 chain: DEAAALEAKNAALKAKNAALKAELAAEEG
To be noted: mean of both orientations.

For a further test, the target named is T11, APC2724-AA.
T11 chain: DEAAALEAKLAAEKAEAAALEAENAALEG
To be noted: mean of both orientations.

Another test deals with T12, APC2811-AA.
T12 chain: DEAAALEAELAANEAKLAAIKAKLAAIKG
To be noted: mean of both orientations.

The target in a further test is T13, APC2981-AA.
T13 chain: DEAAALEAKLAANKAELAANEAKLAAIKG
The settings on record: mean of both orientations.

Another test has as its target T14, APC3265-AA.
T14 chain: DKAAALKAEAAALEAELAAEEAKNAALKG
To be noted: mean of both orientations.

Another test concerns the target T15, APC3323-AA.
T15 chain: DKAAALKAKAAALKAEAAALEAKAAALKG
To be noted: mean of both orientations.

The target in the next test is T16, APC3354-AA.
T16 chain: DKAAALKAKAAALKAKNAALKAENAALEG
To be noted: mean of both orientations.

A further test has as its target T17, APC3881-AA.
T17 chain: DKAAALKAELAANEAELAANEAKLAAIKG
The settings on record: mean of both orientations.

A further test has as its target T18, APC4100-AA.
T18 chain: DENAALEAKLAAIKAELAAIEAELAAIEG
To be noted: mean of both orientations.

The target in the next test is T19, APC4336-AA.
T19 chain: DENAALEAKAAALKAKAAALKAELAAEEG
To be noted: mean of both orientations.

The target of a further test is T20, APC5009-AA.
T20 chain: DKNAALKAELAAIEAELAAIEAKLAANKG
To be noted: mean of both orientations.

A further test deals with T21, APC542-AA.
T21 chain: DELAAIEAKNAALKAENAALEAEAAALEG
The settings on record: mean of both orientations.

For another test, the target named is T22, APC5531-AA.
T22 chain: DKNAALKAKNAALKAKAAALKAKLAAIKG
The settings on record: mean of both orientations.

A further test addresses T23, APC6088-AA.
T23 chain: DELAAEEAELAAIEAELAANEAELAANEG
To be noted: mean of both orientations.

The target of a further test is T24, APC7524-AA.
T24 chain: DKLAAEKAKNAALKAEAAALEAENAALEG
The settings on record: mean of both orientations.

The target of the next test is T25, APC8401-AA.
T25 chain: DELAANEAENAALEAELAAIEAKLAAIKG
The settings on record: mean of both orientations.

In the next test the target is T26, APC8516-AA.
T26 chain: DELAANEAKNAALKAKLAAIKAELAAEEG
The settings on record: mean of both orientations.

In another test the target is T27, APC9141-AA.
T27 chain: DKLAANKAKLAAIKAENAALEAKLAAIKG
To be noted: mean of both orientations.

Another test deals with T28, APC9182-AA.
T28 chain: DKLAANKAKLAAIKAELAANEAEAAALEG
The settings on record: mean of both orientations.

In the next test the target is T29, APC9291-AA.
T29 chain: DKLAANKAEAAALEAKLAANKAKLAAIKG
The settings on record: mean of both orientations.

The next test concerns the target T30, APC9806-AA.
T30 chain: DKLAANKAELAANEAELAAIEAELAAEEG
To be noted: mean of both orientations.

A further test concerns the target T31, Core_ININ-es_KEEE.
T31 chain: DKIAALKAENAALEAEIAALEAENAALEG
The settings on record: mean of both orientations.

The values below come from publication PMC10397247.

B1: APC1115-AA (peptide)
chain: DKLAAIKAKLAAIKAKLAAIKAKNAALKG
As to B1, the interaction score with APC1115-AA is -0.803; in the test with APC1242-AA it was -1.35; with APC1916-AA, -1.84; with APC1987-AA, -1.74; with APC222-AA, 0.216; with APC2257-AA, -1.42. For the same molecule, the interaction score with APC2375-AA is -1.67; in the test with APC2474-AA, -1.58; with APC2543-AA, -1.49; with APC2556-AA, -1.69; in the test with APC2724-AA, -1.69; in the test with APC2811-AA, -1.19. Also, the interaction score was -1.43 in the test with APC2981-AA; -1.52 with APC3265-AA; -1.52 with APC3323-AA; -1.93 in the test with APC3354-AA; -1.47 in the test with APC3881-AA; 0.913 with APC4100-AA. For the same molecule, the interaction score in the test with APC4336-AA was -1.61; in the test with APC5009-AA it was -0.451; in the test with APC542-AA, -1.93; with APC5531-AA it was -1.86; with APC6088-AA, -1.12; in the test with APC7524-AA, -1.68. Besides, the interaction score is -1.04 with APC8401-AA; -1.51 with APC8516-AA; -1.58 with APC9141-AA; -1.98 in the test with APC9182-AA; -1.83 in the test with APC9291-AA; -1.67 in the test with APC9806-AA.

B2: Core_ININ-es_EKKK (peptide)
chain: DEIAALEAKNAALKAKIAALKAKNAALKG
In the test with Core_ININ-es_KEEE, B2 showed an interaction score of 2.37.
